Data from IntAct's records for PubMed 20562859.

Key:
atg10_human ATG10 = atg10_human ATG10 (UniProt Q9H0Y0)
nips2_human NIPSNAP2 = biological target: T1, nips2_human NIPSNAP2 (UniProt O75323)
T1 sequence: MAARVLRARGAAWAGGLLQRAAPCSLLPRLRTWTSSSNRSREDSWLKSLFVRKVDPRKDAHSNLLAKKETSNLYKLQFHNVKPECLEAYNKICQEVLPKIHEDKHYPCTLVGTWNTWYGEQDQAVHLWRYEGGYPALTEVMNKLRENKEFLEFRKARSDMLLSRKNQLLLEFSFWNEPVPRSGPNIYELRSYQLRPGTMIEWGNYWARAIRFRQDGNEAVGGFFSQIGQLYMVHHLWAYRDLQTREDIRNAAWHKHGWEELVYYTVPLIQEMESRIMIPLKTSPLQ

atg3_human ATG3 = atg3_human ATG3 (UniProt Q9NT62)
stk3_human STK3 = biological target: T2, stk3_human STK3 (UniProt Q13188)
T2 sequence: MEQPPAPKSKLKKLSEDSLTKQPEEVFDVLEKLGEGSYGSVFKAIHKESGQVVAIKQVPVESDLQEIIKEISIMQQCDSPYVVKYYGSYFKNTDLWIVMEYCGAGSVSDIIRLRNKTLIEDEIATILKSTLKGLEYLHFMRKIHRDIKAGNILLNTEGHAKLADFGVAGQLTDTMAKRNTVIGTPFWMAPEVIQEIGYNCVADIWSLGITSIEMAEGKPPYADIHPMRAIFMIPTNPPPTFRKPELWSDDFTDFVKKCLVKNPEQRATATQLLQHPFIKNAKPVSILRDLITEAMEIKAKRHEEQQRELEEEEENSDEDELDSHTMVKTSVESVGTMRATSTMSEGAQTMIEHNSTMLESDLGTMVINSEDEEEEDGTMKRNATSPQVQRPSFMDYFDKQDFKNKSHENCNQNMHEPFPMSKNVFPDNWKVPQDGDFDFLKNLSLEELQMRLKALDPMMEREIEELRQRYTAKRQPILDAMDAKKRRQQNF

atg2a_human ATG2A = atg2a_human ATG2A (UniProt Q2TAZ0)
echa_human HADHA = echa_human HADHA (UniProt P40939)
kbtb6_human KBTBD6 = biological target: T3, kbtb6_human KBTBD6 (UniProt Q86V97)
T3 sequence: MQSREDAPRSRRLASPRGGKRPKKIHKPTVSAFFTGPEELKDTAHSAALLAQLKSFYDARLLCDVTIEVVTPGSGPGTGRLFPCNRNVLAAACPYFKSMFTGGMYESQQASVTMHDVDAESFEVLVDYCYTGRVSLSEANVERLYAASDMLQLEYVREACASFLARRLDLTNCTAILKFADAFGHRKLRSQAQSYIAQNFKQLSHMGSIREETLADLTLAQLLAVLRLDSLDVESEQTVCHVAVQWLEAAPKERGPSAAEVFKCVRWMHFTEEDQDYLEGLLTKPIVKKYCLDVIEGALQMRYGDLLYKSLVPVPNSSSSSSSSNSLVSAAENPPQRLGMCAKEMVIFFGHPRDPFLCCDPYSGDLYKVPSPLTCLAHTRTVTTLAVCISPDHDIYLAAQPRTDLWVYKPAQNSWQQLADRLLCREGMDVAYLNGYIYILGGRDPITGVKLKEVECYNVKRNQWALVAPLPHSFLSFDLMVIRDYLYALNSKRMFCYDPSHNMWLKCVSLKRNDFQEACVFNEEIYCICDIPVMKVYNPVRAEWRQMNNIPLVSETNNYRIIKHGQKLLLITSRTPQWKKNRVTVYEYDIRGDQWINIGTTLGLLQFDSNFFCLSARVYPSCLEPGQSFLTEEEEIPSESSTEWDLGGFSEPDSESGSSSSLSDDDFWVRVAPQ

kbtb7_human KBTBD7 = biological target: T4, kbtb7_human KBTBD7 (UniProt Q8WVZ9)
T4 sequence: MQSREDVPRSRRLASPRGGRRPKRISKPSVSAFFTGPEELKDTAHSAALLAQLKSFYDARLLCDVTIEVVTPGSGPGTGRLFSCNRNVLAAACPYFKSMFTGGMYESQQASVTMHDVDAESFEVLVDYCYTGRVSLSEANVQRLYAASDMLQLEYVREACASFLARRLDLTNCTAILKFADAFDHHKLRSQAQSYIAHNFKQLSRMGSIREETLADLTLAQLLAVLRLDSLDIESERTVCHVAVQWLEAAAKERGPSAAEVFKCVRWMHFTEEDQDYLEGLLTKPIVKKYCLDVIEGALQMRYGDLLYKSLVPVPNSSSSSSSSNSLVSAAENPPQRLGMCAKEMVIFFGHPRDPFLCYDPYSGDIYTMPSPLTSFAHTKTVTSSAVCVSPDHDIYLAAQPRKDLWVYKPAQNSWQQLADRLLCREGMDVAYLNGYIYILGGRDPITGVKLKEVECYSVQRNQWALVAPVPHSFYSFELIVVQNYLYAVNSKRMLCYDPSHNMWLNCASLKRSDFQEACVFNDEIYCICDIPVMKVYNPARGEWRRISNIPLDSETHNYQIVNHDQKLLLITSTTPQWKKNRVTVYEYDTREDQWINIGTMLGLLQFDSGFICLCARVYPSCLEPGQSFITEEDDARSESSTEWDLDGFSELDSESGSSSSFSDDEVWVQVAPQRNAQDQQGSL

atg2a_human ATG2A, sequence (Q2TAZ0 whole entry): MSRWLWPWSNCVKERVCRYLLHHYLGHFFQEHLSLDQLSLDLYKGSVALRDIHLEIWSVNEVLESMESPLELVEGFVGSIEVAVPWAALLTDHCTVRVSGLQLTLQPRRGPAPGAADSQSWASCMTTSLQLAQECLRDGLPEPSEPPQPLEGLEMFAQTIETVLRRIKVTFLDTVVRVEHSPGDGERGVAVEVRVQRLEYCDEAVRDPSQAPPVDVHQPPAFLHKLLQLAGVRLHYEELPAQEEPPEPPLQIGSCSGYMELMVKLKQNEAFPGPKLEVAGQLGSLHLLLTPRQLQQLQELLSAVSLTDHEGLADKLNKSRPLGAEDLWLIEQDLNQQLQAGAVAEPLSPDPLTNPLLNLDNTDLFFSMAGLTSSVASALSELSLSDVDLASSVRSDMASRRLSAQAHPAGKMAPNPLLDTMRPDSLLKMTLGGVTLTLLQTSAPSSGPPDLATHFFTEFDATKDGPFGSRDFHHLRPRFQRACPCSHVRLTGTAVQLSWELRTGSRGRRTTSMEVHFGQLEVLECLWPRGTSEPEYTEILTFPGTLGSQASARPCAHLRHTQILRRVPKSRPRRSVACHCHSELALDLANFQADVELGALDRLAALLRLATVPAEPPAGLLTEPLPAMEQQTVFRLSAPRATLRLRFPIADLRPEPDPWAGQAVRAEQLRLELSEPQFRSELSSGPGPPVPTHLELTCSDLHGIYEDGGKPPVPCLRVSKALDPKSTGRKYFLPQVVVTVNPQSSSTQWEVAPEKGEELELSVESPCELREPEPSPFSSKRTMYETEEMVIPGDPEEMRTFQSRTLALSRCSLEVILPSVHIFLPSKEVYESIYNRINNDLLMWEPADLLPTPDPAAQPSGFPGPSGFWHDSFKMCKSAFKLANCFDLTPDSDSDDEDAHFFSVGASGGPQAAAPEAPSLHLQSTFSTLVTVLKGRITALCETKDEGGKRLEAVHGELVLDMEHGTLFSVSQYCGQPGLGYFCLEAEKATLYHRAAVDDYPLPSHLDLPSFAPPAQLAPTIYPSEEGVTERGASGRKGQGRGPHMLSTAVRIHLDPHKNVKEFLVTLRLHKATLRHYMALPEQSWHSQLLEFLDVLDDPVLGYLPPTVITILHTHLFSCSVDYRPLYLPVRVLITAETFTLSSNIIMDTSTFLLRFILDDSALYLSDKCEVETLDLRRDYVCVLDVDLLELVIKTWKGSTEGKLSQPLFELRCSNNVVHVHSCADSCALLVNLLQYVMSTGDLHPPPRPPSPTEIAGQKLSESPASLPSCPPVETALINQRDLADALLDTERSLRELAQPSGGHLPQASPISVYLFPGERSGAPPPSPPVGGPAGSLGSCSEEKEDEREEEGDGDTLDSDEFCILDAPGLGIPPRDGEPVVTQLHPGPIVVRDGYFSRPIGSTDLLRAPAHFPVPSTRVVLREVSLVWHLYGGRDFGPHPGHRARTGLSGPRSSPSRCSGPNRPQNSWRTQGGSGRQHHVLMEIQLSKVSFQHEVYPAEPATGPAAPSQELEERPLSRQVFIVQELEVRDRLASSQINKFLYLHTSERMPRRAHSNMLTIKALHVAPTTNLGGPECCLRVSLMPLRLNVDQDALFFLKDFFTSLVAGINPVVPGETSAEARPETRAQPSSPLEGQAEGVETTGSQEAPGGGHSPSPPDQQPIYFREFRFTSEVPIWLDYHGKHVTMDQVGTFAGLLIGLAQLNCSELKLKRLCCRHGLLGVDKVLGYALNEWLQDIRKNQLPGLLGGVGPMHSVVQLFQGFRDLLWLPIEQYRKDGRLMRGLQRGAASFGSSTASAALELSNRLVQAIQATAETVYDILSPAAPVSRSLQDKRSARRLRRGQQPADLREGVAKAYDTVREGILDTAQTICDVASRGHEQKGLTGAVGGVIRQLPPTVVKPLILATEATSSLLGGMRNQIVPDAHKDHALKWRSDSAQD
atg10_human ATG10, sequence (Q9H0Y0 whole entry): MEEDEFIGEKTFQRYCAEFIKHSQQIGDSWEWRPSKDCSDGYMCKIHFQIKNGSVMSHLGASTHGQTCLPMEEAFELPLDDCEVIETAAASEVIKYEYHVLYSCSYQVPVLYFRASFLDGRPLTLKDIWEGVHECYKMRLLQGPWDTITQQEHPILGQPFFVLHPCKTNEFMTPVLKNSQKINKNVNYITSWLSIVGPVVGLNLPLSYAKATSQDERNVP
echa_human HADHA, sequence (P40939 whole entry): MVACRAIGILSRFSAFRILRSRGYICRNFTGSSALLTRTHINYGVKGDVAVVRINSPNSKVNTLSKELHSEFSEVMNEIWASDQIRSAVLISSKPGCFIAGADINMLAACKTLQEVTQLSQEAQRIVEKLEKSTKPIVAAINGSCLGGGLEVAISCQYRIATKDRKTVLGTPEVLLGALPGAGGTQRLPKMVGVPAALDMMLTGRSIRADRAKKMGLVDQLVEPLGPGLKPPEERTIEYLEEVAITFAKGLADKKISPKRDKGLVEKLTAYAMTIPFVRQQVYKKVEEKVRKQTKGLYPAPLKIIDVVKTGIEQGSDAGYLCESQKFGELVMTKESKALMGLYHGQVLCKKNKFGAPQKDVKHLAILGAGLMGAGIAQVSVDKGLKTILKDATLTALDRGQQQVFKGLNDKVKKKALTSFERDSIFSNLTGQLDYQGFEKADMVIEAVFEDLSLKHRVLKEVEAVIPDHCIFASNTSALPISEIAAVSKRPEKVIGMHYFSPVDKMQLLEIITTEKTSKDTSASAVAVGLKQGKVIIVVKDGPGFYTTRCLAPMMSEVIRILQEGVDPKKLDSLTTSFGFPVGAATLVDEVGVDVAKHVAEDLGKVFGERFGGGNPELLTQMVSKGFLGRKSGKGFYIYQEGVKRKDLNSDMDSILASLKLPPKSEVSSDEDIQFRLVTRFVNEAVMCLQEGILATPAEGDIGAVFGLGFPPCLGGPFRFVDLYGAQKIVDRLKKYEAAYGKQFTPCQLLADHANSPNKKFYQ
atg3_human ATG3, sequence (Q9NT62 whole entry): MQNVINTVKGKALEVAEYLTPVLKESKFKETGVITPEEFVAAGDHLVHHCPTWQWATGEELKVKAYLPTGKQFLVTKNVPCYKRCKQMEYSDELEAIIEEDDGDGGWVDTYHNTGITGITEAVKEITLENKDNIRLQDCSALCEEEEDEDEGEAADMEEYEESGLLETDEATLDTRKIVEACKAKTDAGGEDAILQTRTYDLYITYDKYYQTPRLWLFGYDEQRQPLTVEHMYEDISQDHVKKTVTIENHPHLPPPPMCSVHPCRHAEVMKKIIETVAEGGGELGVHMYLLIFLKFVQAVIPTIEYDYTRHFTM

Substance	effect of a mutation on the interaction (atg10_human ATG10)	effect of a mutation on the interaction (nips2_human NIPSNAP2)	effect of a mutation on the interaction (atg3_human ATG3)	effect of a mutation on the interaction (stk3_human STK3)	effect of a mutation on the interaction (atg2a_human ATG2A)	effect of a mutation on the interaction (echa_human HADHA)	effect of a mutation on the interaction (kbtb6_human KBTBD6)	effect of a mutation on the interaction (kbtb7_human KBTBD7)
Microtubule-associated protein 1 light chain 3 beta (Homo sapiens) (from UniProt Q9GZQ8) F52A;L53A	increasing interaction	increasing interaction	disrupting interaction	increasing interaction	increasing interaction	increasing interaction	decreasing interaction	decreasing interaction
Microtubule-associated protein 1 light chain 3 beta (Homo sapiens) (from UniProt Q9GZQ8) R69A	decreasing interaction	decreasing interaction	disrupting interaction	decreasing interaction	decreasing interaction	disrupting interaction	disrupting interaction	disrupting interaction
